Legend:
[1] = test system: PSMA-expressing LNCaP cancer xenografts; conditions: mouse, in vivo
[2] = test system: PSMA-expressing LNCaP cancer xenografts; parameters: species or system mice; conditions: mouse, in vivo, iv
Description: Imaging and biodistribution experiments were performed using NODSCID 1 L2RγKO male mice. Mice were anesthetized by inhalation with 2% isoflurane in oxygen, and implanted subcutaneously with 1×10^7 LNCaP cells behind left shoulder. Mice were imaged or used in biodistribution studies when the tumor grew up to reach 5-8 mm in diameter during 5-6 weeks.
PET imaging experiments were conducted using Siemens Inveon micro PET/CT scanner. Each tumor bearing mouse was injected 6-8 MBq of Ga-68 labeled tracer through the tail vein under anesthesia (2% isoflurane in oxygen). The mice were allowed to recover and roam freely in their cage. After 50 min, the mice were sedated again with 2% isoflurane in oxygen inhalation and positioned in the scanner. […] Then, a 10-min static PET imaging was performed to determined uptake in tumor and other organs. […] The collected organs/tissues were weighed and counted using a Perkin Elmer (Waltham, Mass.) Wizard2 2480 gamma counter. The uptake in each organ/tissue was normalized to the injected dose using a standard curve, and expressed as the percentage of the injected dose per gram of tissue (% ID/g). […]
PET imaging experiments were conducted using Siemens Inveon micro PET/CT scanner. […] Then, a 10-min static PET imaging was performed to determined uptake in tumor and other organs.

in vivo = conditions: male, NODSCID 1L2RγKO, mouse, iv, total radioactivity

O=C(O)CCC[C@H](NC(=O)N[C@@H](CCCCNC(=O)[C@H](Cc1c2ccccc2cc2ccccc12)NC(=O)[C@H]1CC[C@H](CNC(=O)CN2CCN(CC(=O)O)CCN(CC(=O)O)CCN(CC(=O)O)CC2)CC1)C(=O)O)C(=O)O [68Ga-HTK03149, metal not drawn]
Adrenal glands uptake ([1]; male, NODSCID 1L2RγKO, iv, 1 h): 0.33 ± 0.11 % ID/g
Blood uptake ([1]; male, NODSCID 1L2RγKO, iv, 1 h): 0.70 ± 0.17 % ID/g
Kidneys uptake ([1]; male, NODSCID 1L2RγKO, iv, 1 h): 4.15 ± 1.46 % ID/g
Liver uptake ([1]; male, NODSCID 1L2RγKO, iv, 1 h): 0.25 ± 0.06 % ID/g
Lungs uptake ([1]; male, NODSCID 1L2RγKO, iv, 1 h): 0.53 ± 0.09 % ID/g
Seminal uptake ([1]; male, NODSCID 1L2RγKO, iv, 1 h): 3.66 ± 5.36 % ID/g
Spleen uptake ([1]; male, NODSCID 1L2RγKO, iv, 1 h): 0.27 ± 0.05 % ID/g
Stomach uptake ([1]; male, NODSCID 1L2RγKO, iv, 1 h): 0.07 ± 0.01 % ID/g
Tail uptake ([1]; male, NODSCID 1L2RγKO, iv, 1 h): 0.58 ± 0.14 % ID/g
Thyroid uptake ([1]; male, NODSCID 1L2RγKO, iv, 1 h): 0.20 ± 0.05 % ID/g
Tumor uptake ([1]; male, NODSCID 1L2RγKO, iv, 1 h): 19.1 ± 6.37 % ID/g
Urine uptake ([1]; male, NODSCID 1L2RγKO, iv, 1 h): 319 ± 183 % ID/g
Blood: Salivary ratio [1]: 3.21 ± 0.64
activity in other organs in PET images [2]: very low activity in other organs
tissue uptake at 1 h (in vivo; Adrenal glands uptake): 0.46 ± 0.26 %ID/g
tissue uptake at 3 h (in vivo; Adrenal glands uptake): 0.46 ± 0.16 %ID/g
tissue uptake at 1 h (in vivo; Blood uptake): 0.96 ± 0.17 %ID/g
tissue uptake at 3 h (in vivo; Blood uptake): 0.35 ± 0.14 %ID/g
tissue uptake at 1 h (in vivo; Bone uptake): 0.1 ± 0.03 %ID/g
tissue uptake at 1 h (in vivo; Brain uptake): 0.02 ± 0.01 %ID/g
tissue uptake at 3 h (in vivo; Brain uptake): 0.02 ± 0.01 %ID/g
tissue uptake at 1 h (in vivo; Fat uptake): 0.22 ± 0.16 %ID/g
tissue uptake at 3 h (in vivo; Fat uptake): 0.16 ± 0.09 %ID/g
tissue uptake at 1 h (in vivo; Heart uptake): 0.29 ± 0.07 %ID/g
tissue uptake at 3 h (in vivo; Heart uptake): 0.09 ± 0.02 %ID/g
tissue uptake at 1 h (in vivo; Intestine uptake): 0.3 ± 0.07 %ID/g
tissue uptake at 3 h (in vivo; Intestine uptake): 0.18 ± 0.04 %ID/g
tissue uptake at 1 h (in vivo; Kidneys uptake): 6.79 ± 4.91 %ID/g
tissue uptake at 3 h (in vivo; Kidneys uptake): 2.33 ± 1.02 %ID/g
tissue uptake at 1 h (in vivo; Lacrimal uptake): 0.1 ± 0.03 %ID/g
tissue uptake at 3 h (in vivo; Lacrimal uptake): 0.21 ± 0.2 %ID/g
tissue uptake at 1 h (in vivo; Liver uptake): 0.35 ± 0.17 %ID/g
tissue uptake at 3 h (in vivo; Liver uptake): 0.13 ± 0.02 %ID/g
tissue uptake at 1 h (in vivo; Lungs uptake): 0.82 ± 0.37 %ID/g
tissue uptake at 3 h (in vivo; Lungs uptake): 0.22 ± 0.05 %ID/g
tissue uptake at 1 h (in vivo; Muscle uptake): 0.14 ± 0.04 %ID/g
tissue uptake at 3 h (in vivo; Muscle uptake): 0.05 ± 0.02 %ID/g
tissue uptake at 1 h (in vivo; Pancreas uptake): 0.17 ± 0.03 %ID/g
tissue uptake at 3 h (in vivo; Pancreas uptake): 0.06 ± 0.02 %ID/g
tissue uptake at 1 h (in vivo; Salivary uptake): 0.23 ± 0.05 %ID/g
tissue uptake at 3 h (in vivo; Salivary uptake): 0.15 ± 0.13 %ID/g
tissue uptake at 1 h (in vivo; Seminal uptake): 6.46 ± 7.52 %ID/g
tissue uptake at 3 h (in vivo; Seminal uptake): 1.19 ± 1.04 %ID/g
tissue uptake at 1 h (in vivo; Spleen uptake): 0.37 ± 0.12 %ID/g
tissue uptake at 3 h (in vivo; Spleen uptake): 0.24 ± 0.07 %ID/g
tissue uptake at 1 h (in vivo; Stomach uptake): 0.09 ± 0.04 %ID/g
tissue uptake at 3 h (in vivo; Stomach uptake): 0.03 ± 0.01 %ID/g
tissue uptake at 1 h (in vivo; Tail uptake): 0.86 ± 0.47 %ID/g
tissue uptake at 3 h (in vivo; Tail uptake): 0.13 ± 0.06 %ID/g
tissue uptake at 1 h (in vivo; Testes uptake): 0.38 ± 0.16 %ID/g
tissue uptake at 3 h (in vivo; Testes uptake): 0.11 ± 0.03 %ID/g
tissue uptake at 1 h (in vivo; Thyroid uptake): 0.29 ± 0.08 %ID/g
tissue uptake at 3 h (in vivo; Thyroid uptake): 0.1 ± 0.04 %ID/g
tissue uptake at 1 h (in vivo; Tumor uptake): 22.1 ± 13.9 %ID/g
tissue uptake at 3 h (in vivo; Tumor uptake): 33.5 ± 10.7 %ID/g
excreta dose per gram or mL at 1 h (in vivo; Urine uptake): 336 ± 127 %ID/g
excreta dose per gram or mL at 3 h (in vivo; Urine uptake): 148 ± 102 %ID/g

O=C(O)CCC[C@H](NC(=O)N[C@@H](CCCCNC(=O)[C@H](Cc1ccc2ccccc2c1)NC(=O)[C@H]1CC[C@H](CNC(=O)CN2CCN(CC(=O)O)CCN(CC(=O)O)CCN(CC(=O)O)CC2)CC1)C(=O)O)C(=O)O [68Ga-HTK03169, metal not drawn]
Blood: Salivary ratio [1]: 4.39 ± 2.06
Tumor: Blood ratio [1]: 6.09 ± 2.24
Tumor: Kidney ratio [1]: 1.47 ± 0.16
Tumor: Muscle ratio [1]: 47.1 ± 12.3
Tumor: Salivary ratio [1]: 23.2 ± 1.91
tissue uptake at 1 h (in vivo; Adrenal glands uptake): 0.24 ± 0.08 %ID/g
tissue uptake at 1 h (in vivo; Blood uptake): 0.63 ± 0.36 %ID/g
tissue uptake at 1 h (in vivo; Bone uptake): 0.08 ± 0.03 %ID/g
tissue uptake at 1 h (in vivo; Brain uptake): 0.02 ± 0.01 %ID/g
tissue uptake at 1 h (in vivo; Fat uptake): 0.09 ± 0.04 %ID/g
tissue uptake at 1 h (in vivo; Heart uptake): 0.14 ± 0.07 %ID/g
tissue uptake at 1 h (in vivo; Intestine uptake): 0.23 ± 0.16 %ID/g
tissue uptake at 1 h (in vivo; Kidneys uptake): 2.18 ± 0.48 %ID/g
tissue uptake at 1 h (in vivo; Lacrimal uptake): 0.13 ± 0.06 %ID/g
tissue uptake at 1 h (in vivo; Liver uptake): 0.21 ± 0.16 %ID/g
tissue uptake at 1 h (in vivo; Lungs uptake): 0.38 ± 0.17 %ID/g
tissue uptake at 1 h (in vivo; Muscle uptake): 0.08 ± 0.05 %ID/g
tissue uptake at 1 h (in vivo; Pancreas uptake): 0.11 ± 0.05 %ID/g
tissue uptake at 1 h (in vivo; Salivary uptake): 0.14 ± 0.03 %ID/g
tissue uptake at 1 h (in vivo; Seminal uptake): 3.83 ± 2.93 %ID/g
tissue uptake at 1 h (in vivo; Spleen uptake): 0.13 ± 0.06 %ID/g
tissue uptake at 1 h (in vivo; Stomach uptake): 0.09 ± 0.11 %ID/g
tissue uptake at 1 h (in vivo; Tail uptake): 0.48 ± 0.2 %ID/g
tissue uptake at 1 h (in vivo; Testes uptake): 0.13 ± 0.07 %ID/g
tissue uptake at 1 h (in vivo; Thyroid uptake): 0.16 ± 0.07 %ID/g
tissue uptake at 1 h (in vivo; Tumor uptake): 3.19 ± 0.7 %ID/g
excreta dose per gram or mL at 1 h (in vivo; Urine uptake): 421 ± 187 %ID/g

O=C(O)CCC[C@H](NC(=O)N[C@@H](CCCCNC(=O)[C@H](Cc1cccc(I)c1)NC(=O)[C@H]1CC[C@H](CNC(=O)CN2CCN(CC(=O)O)CCN(CC(=O)O)CCN(CC(=O)O)CC2)CC1)C(=O)O)C(=O)O [68Ga-HTK04053, metal not drawn]
Blood: Salivary ratio [1]: 5.19 ± 1.73
Tumor: Blood ratio [1]: 16.8 ± 7.00
Tumor: Kidney ratio [1]: 1.84 ± 1.26
Tumor: Muscle ratio [1]: 93.7 ± 27.0
Tumor: Salivary ratio [1]: 84.3 ± 32.1
tissue uptake at 1 h (in vivo; Adrenal glands uptake): 0.12 ± 0.03 %ID/g
tissue uptake at 1 h (in vivo; Blood uptake): 0.29 ± 0.05 %ID/g
tissue uptake at 1 h (in vivo; Bone uptake): 0.04 ± 0.01 %ID/g
tissue uptake at 1 h (in vivo; Brain uptake): 0.01 %ID/g
tissue uptake at 1 h (in vivo; Fat uptake): 0.04 ± 0.01 %ID/g
tissue uptake at 1 h (in vivo; Heart uptake): 0.09 ± 0.02 %ID/g
tissue uptake at 1 h (in vivo; Intestine uptake): 0.15 ± 0.03 %ID/g
tissue uptake at 1 h (in vivo; Kidneys uptake): 3.48 ± 2.39 %ID/g
tissue uptake at 1 h (in vivo; Lacrimal uptake): 0.05 ± 0.01 %ID/g
tissue uptake at 1 h (in vivo; Liver uptake): 0.13 ± 0.07 %ID/g
tissue uptake at 1 h (in vivo; Lungs uptake): 0.28 ± 0.04 %ID/g
tissue uptake at 1 h (in vivo; Muscle uptake): 0.05 ± 0.01 %ID/g
tissue uptake at 1 h (in vivo; Pancreas uptake): 0.06 ± 0.02 %ID/g
tissue uptake at 1 h (in vivo; Salivary uptake): 0.06 ± 0.02 %ID/g
tissue uptake at 1 h (in vivo; Seminal uptake): 7.61 ± 12.5 %ID/g
tissue uptake at 1 h (in vivo; Spleen uptake): 0.12 ± 0.03 %ID/g
tissue uptake at 1 h (in vivo; Stomach uptake): 0.06 ± 0.04 %ID/g
tissue uptake at 1 h (in vivo; Tail uptake): 0.2 ± 0.07 %ID/g
tissue uptake at 1 h (in vivo; Testes uptake): 0.11 ± 0.02 %ID/g
tissue uptake at 1 h (in vivo; Thyroid uptake): 0.09 ± 0.01 %ID/g
tissue uptake at 1 h (in vivo; Tumor uptake): 4.96 ± 2.75 %ID/g
excreta dose per gram or mL at 1 h (in vivo; Urine uptake): 523 ± 330 %ID/g

O=C(O)CSC[C@H](NC(=O)N[C@@H](CCCCNC(=O)[C@H](Cc1c2ccccc2cc2ccccc12)NC(=O)[C@H]1CC[C@H](CNC(=O)CN2CCN(CC(=O)O)CCN(CC(=O)O)CCN(CC(=O)O)CC2)CC1)C(=O)O)C(=O)O [68Ga-HTK03177, metal not drawn]
Blood: Salivary ratio [1]: 3.14 ± 0.19
Tumor: Blood ratio [1]: 36.1 ± 12.5
Tumor: Kidney ratio [1]: 3.25 ± 1.16
Tumor: Muscle ratio [1]: 220 ± 135
Tumor: Salivary ratio [1]: 112 ± 33.1
tissue uptake at 1 h (in vivo; Adrenal glands uptake): 0.46 ± 0.17 %ID/g
tissue uptake at 1 h (in vivo; Blood uptake): 0.7 ± 0.06 %ID/g
tissue uptake at 1 h (in vivo; Bone uptake): 0.1 ± 0.03 %ID/g
tissue uptake at 1 h (in vivo; Brain uptake): 0.02 %ID/g
tissue uptake at 1 h (in vivo; Fat uptake): 0.09 ± 0.04 %ID/g
tissue uptake at 1 h (in vivo; Heart uptake): 0.21 ± 0.01 %ID/g
tissue uptake at 1 h (in vivo; Intestine uptake): 0.21 ± 0.02 %ID/g
tissue uptake at 1 h (in vivo; Kidneys uptake): 7.76 ± 1 %ID/g
tissue uptake at 1 h (in vivo; Lacrimal uptake): 0.12 ± 0.06 %ID/g
tissue uptake at 1 h (in vivo; Liver uptake): 0.33 ± 0.2 %ID/g
tissue uptake at 1 h (in vivo; Lungs uptake): 0.61 ± 0.08 %ID/g
tissue uptake at 1 h (in vivo; Muscle uptake): 0.18 ± 0.18 %ID/g
tissue uptake at 1 h (in vivo; Pancreas uptake): 0.14 ± 0.01 %ID/g
tissue uptake at 1 h (in vivo; Salivary uptake): 0.22 ± 0.02 %ID/g
tissue uptake at 1 h (in vivo; Seminal uptake): 0.28 ± 0.38 %ID/g
tissue uptake at 1 h (in vivo; Spleen uptake): 0.42 ± 0.15 %ID/g
tissue uptake at 1 h (in vivo; Stomach uptake): 0.15 ± 0.09 %ID/g
tissue uptake at 1 h (in vivo; Tail uptake): 0.74 ± 0.12 %ID/g
tissue uptake at 1 h (in vivo; Testes uptake): 0.25 ± 0.07 %ID/g
tissue uptake at 1 h (in vivo; Thyroid uptake): 0.23 ± 0.01 %ID/g
tissue uptake at 1 h (in vivo; Tumor uptake): 24.7 ± 6.85 %ID/g
excreta dose per gram or mL at 1 h (in vivo; Urine uptake): 400 ± 262 %ID/g

Reference: patent US11504441B2, “Radiolabeled compounds targeting the prostate-specific membrane antigen” (PROVINCIAL HEALTH SERVICES AUTHORITY, priority 2019, dated 2022)
